According to patent US20120165265A1, “Calcium Signaling Modulators Involving STIM and ORAI Proteins” (priority 2009, published 2012):
“Also recorded” adds a separate entry of the source.

Key:
[1] = system: endogenous CRAC channels; assay: NFAT-luciferase assay in HEK 293T (NFAT-Luc) cells; assay type: cell-based; conditions: HEK 293T NFAT-luc cells transfected with STIM1 construct; PMA (1 μM) alone; listed as D5
Protocol: NFAT-luciferase Assays. HEK 293T cells were co-transfected with the indicated constructs and an NFAT reporter gene (firefly luciferase gene C-terminal to 4×-NFAT site from the IL-2 gene). Cotransfection with the Renilla luciferase (pRLTK) gene driven by the TK promoter was used to control for cell number and transfection efficiency. After 12-18 h, cells were treated with a control DMSO solution (mock), PMA (1 μM), or PMA plus TG (1 μM) for 8 h. Assays were performed using the Dual Luciferase Reporter assay system (Promega). For each condition, luciferase activity was measured with 4 samples taken from duplicate wells using a 96-well automated luminometer (Turner Biosystems). Results are represented as the ratio of firefly to Renilla luciferase activity.
Identifying a Minimal Cytosolic Region of STIM1 that Opens the CRAC Channel. To identify the CRAC-activating domain of STIM1, we first tested a series of soluble cytosolic STIM1 fragments for their ability to activate an NFAT-dependent luciferase reporter gene (NFAT-luc). A series of constructs were generated by progressive truncation of the full-length cytosolic region of STIM1 (FIG. 2A; STIM1234-685; CT-STIM1) and were transiently expressed in a HEK 293T cell line containing NFAT-luc. […]

[2] = target: T1, Orai1 (Homo sapiens, UniProt Q96D31); assay: Yeast split ubiquitin interaction assay, CAD with Orai1; assay type: binding; conditions: NubG-Orai1 and CAD-Cub-LV in yeast
Protocol: Split-Ubiquitin Yeast Two Hybrid Assay. Screening was performed according to the manufacturer's instructions (Dualsystems Biotech). Transformed yeast were selected on media lacking Trp and Leu (-TL). Interaction was observed by cell growth on plates lacking Trp, Leu, and His (TLH) in the presence of 3-aminotriazole (3-AT). Protein interactions were also assessed by measuring lacZ activity using the chromogenic substrate X-gal (5-bromo-4-chloro-3-indolyl-β-galactopyranoside).
Split-Ubiquitin Yeast Two Hybrid Assay. To generate fusion proteins with the N-terminal half of ubiquitin (Nub), full-length or fragments of Orai1 were amplified by PCR and cloned into the pDL2-Nubx vector (Dualsystems Biotech). The Nub sequence in the pDL2-Nubx plasmid contains a point mutation (NubG) that abolishes the spontaneous association of Nub to the C-terminal half of ubiquitin (Cub). The CAD was subcloned into the pAMBV4 vector, which contains Cub fused to a chimeric transcription factor consisting of the DNA binding domain from LexA and the VP16 transactivation domain.
As a third test for association of CAD and Orai1 in vivo, and to map the interaction domains of Orai1 we introduced both proteins into a yeast split ubiquitin interaction system. […]

[3] = target: T1, Orai1; assay: Whole-cell patch clamp recording of ICRAC in transfected HEK 293 cells; assay type: cell-based; parameters: expressed in transfected cells; host or cells: HEK 293; conditions: compared with native ICRAC
Protocol: Electrophysiology. HEK 293 cells were transfected 8-24 h prior to electrophysiology experiments with STIM1- and Orai1-derived constructs in a 1:1 mass ratio using Lipofectamine 2000. […] ICRAC in cells cultured without LaCl3 was similar to that in cells cultured with LaCl3, but most cells without LaCl3 died soon after break-in.
Currents were recorded using standard whole-cell patch clamp techniques (Prakriya and Lewis, 2001). Pipettes of resistance 2-5 MΩ were filled with an internal solution containing (in mM) 150 Cs aspartate, 8 MgCl2, 10 EGTA, and 10 HEPES (pH 7.2 with CsOH). Currents were sampled at 5 kHz and filtered at 2 kHz, and all voltages were corrected for the junction potential of the pipette solution relative to Ringer's in the bath (−13 mV).
Patch-clamp Experiments. Pipette-membrane seals were formed in 2 mM Ca^2+ Ringer's solution. After break-in to the whole-cell configuration, voltage stimuli consisting of a 100-ms step to −100 mV followed by a 100-ms ramp from −100 to +100 mV were delivered every 5 s from the holding potential of +30 mV. After the currents reached a steady level (˜300 s for wild-type STIM1), the external solution was changed via a multibarrel local perfusion pipette to a high-Ca^2+ Ringer's containing (in mM) 130 NaCl, 4.5 KCl, 20 CaCl2, 1 MgCl2, 10 D-glucose, and 5 HEPES (pH 7.4 with NaOH). All data were leak-corrected using the current elicited in 20 mM Ca^2+ Ringer's+10 μM LaCl3 at the end of the each experiment. LaCl3 and 2-APB were added directly to parent solutions on the day of the experiment from 10 mM and 100 mM stocks in H2O and DMSO, respectively.
As a definitive test for CRAC channel activation, we conducted whole-cell patch clamp recordings from HEK 293 cells transiently transfected with myc-Orai1 and either YFP-STIM1 or YFP-CAD. In cells expressing full length YFP-STIM1, ICRAC appeared over several minutes following break-in, consistent with the typical slow activation seen in response to passive store depletion (FIG. 2D). […] In contrast, inward current was present from the moment of break-in in cells expressing YFP-CAD (FIG. 2E). This current was identified as ICRAC based on its dependence on extracellular Ca^2+, inward rectification, sequential enhancement and inhibition by 2-APB, and inhibition by La^3+ (FIG. 2E and FIG. 10 C, D). ICRAC was not observed at break-in in HEK 293 cells transfected with YFP or YFP-CAD in the absence of Orai1 (FIG. 2F), consistent with the low level of endogenous STIM1 and Orai1 in these cells. […] Inactivation was restored by addition of STIM1 residues carboxy-terminal to CAD.

[4] = target: T2, CRAC channels (Homo sapiens, UniProt Q96D31); assay: [Ca2+]i imaging in HEK 293 cells expressing STIM1 fragment and Orai1; assay type: cell-based; conditions: HEK 293 cells coexpressing construct and Orai1, no store depletion
T2 construct: expressed in transfected cells; host or cells: HEK 293
Protocol: Ca^2+ Imaging. For FIG. 2, cells were loaded at 37° C. in DMEM with 1 μM fura-2/AM for 30 min. Ratiometric Ca2+ imaging was performed at 340 and 380 nm in 2 mM Ca2+ Ringer's solution with a Nikon Eclipse 2000-U inverted microscope equipped with a fluorescent arc lamp, excitation filter wheel, and a Hamamatsu Orca CCD camera. Images were collected using Openlab (Improvision) and analyzed using Igor Pro.
To determine if CAD activates store operated Ca^2+ influx in cells, we measured [Ca^2+]i in HEK 293 cells expressing CAD and Orai1.

T1 sequence (Q96D31 whole entry): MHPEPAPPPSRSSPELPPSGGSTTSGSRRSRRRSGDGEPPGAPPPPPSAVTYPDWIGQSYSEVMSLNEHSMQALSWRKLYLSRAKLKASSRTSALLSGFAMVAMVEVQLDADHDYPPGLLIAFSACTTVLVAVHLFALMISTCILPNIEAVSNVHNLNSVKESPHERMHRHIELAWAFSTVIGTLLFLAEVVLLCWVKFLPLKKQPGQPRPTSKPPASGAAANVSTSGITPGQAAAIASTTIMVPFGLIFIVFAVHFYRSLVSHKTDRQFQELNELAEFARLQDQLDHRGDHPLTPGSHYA
T2 sequence (Q96D31 whole entry, the tested form may be a part): as the sequence (Q96D31 whole entry) above

CAD: 107-residue CRAC activation domain within the C-terminus of STIM1 (aa 342-448), SEQ ID NO:1
activation of NFAT-dependent luciferase reporter gene (NFAT-luc) [1]: active; also recorded: necessary and sufficient to activate NFAT | interaction with Orai1 (growth on His selection, b-gal) [2]: interact with each other | fast Ca2+-dependent inactivation of activated current [3]: lacked fast Ca^2+-dependent inactivation | [Ca2+]i / CRAC channel activation [4]: sustained [Ca^2+]i elevation
